The experiment addresses T1, ヒト組織因子経路インヒビター (human TFPI) (human, UniProt P10646 29-304, limits assumed).
T1 construct: Coated on Maxisorp plates (ELISA) or amine-coupled to a CM5 chip (Biacore); also called ヒトTFPI; hTFPI
T1 sequence (looked up): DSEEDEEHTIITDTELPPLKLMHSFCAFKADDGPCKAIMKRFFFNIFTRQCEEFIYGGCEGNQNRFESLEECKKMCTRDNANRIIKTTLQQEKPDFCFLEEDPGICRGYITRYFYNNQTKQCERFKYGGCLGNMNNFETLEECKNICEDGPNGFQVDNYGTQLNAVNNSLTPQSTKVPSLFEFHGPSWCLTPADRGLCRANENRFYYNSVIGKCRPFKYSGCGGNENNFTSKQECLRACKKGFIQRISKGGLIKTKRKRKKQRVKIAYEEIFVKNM
The experiment in a line: ELISA, Fab in bacterial lysate on human TFPI-coated plate. (In general: An ELISA detects its analyte on a solid surface through an enzyme-linked reagent.)

B1: TP-3A2 (Fab, V domains shown)
VH: QVQLVESGGGLVQPGGSLRLSCAASGFTFSNYYLSWVRQAPGKGLEWVSGISYNGSSTNYADSVKGRFTISRDNSKNTLYLQMNSLRAEDTAVYYCARMWRYSLGADSWGQGTLVTVSS
VL: DIELTQPPSVSVAPGQTARISCSGDNIGSRYAYWYQQKPGQAPVVVIYDDSDRPSGIPERFSGSNSGNTATLTISGTQAEDEADYYCAAYTFYARTVFGGGTKLTVLG
notes: Human Fab (HuCal Gold), made in E. coli TG1
Consider B1, for which the binding result is given as “binds”.

B2: TP-2A2 (Fab, V domains shown)
VH: QVQLVESGGGLVQPGGSLRLSCAASGFTFSNNAMNWVRQAPGKGLEWVSTISYDGSNTYYADSVKGRFTISRDNSKNTLYLQMNSLRAEDTAVYYCARQAGGWTYSYTDVWGQGTLVTVSS
VL: DIELTQPPSVSVAPGQTARISCSGDNIRTYYVHWYQQKPGQAPVVVIYGDSKRPSGIPERFSGSNSGNTATLTISGTQAEDEADYYCQSYDSEADSEVFGGGTKLTVLG
notes: as for B1
In the case of B2, the binding result is “binds”.

B3: TP-2G7 (Fab, V domains shown)
VH: QVQLVESGGGLVQPGGSLRLSCAASGFTFNSYAMSWVRQAPGKGLEWVSNISSNSSNTYYADSVKGRFTISRDNSKNTLYLQMNSLRAEDTAVYYCARKGGGEHGFFPSDIWGQGTLVTVSS
VL: DIELTQPPSVSVAPGQTARISCSGDNLGTYYVHWYQQKPGQAPVLVIYGDNNRPSGIPERFSGSNSGNTATLTISGTQAEDEADYYCQTYDSNNESIVFGGGTKLTVLG
notes: as for B1
For the molecule B3, the binding result was “binds”.

B4: TP-2G2 (Fab, V domains shown)
VH: QVQLVESGGGLVQPGGSLRLSCAASGFTFSSYAMNWVRQAPGKGLEWVSAILSDGSSTSYADSVKGRFTISRDNSKNTLYLQMNSLRAEDTAVYYCARYPDWGWYTDVWGQGTLVTVSS
VL: DIELTQPPSVSVAPGQTARISCSGDNIRKFYVHWYQQKPGQAPVLVIYGTNKRPSGIPERFSGSNSGNTATLTISGTQAEDEADYYCQSYDSKFNTVFGGGTKLTVLG
notes: as for B1
Turning to B4, the binding result is “binds”.

B5: TP-2A5.1 (Fab, V domains shown)
VH: QVQLVESGGGLVQPGGSLRLSCAASGFTFSSYGSWVRQAPGKGLEWVSVISGSGSSTYYADSVKGRFTISRDNSKNTLYLQMNSLRAEDTAVYYCARVNISTHFDVWGQGTLVTVSS
VL: DIELTQPPSVSVAPGQTARISCSGDNIPEKYVHWYQQKPGQAPVLVIHGDNNRPSGIPERFSGSNSGNTATLTISGTQAEDEADYYCQSFDAGSYFVFGGGTKLTVLG
notes: as for B1
Take B5: the binding result is listed as “binds”.

B6: TP-2C1 (Fab, V domains shown)
VH: QVQLVESGGGLVQPGGSLRLSCAASGFTFSPYVMSWVRQAPGKGLEWVSSISSSSSNTYYADSVKGRFTISRDNSKNTLYLQMNSLRAEDTAVYYCARGDSYMYDVWGQGTLVTVSS
VL: DIELTQPPSVSVAPGQTARISCSGDSIGSYYAHWYQQKPGQAPVLVIYYDSKRPSGIPERFSGSNSGNTATLTISGTQAEDEADYYCQAYTGQSISRVFGGGTKLTVLG
notes: as for B1
Take B6: the binding result is given as “binds”.

B7: TP-2A6 (Fab, V domains shown)
VH: QVQLVESGGGLVQPGGSLRLSCAASGFTFSRYAMSWVRQAPGKGLEWVSSIISSSSETYYADSVKGRFTISRDNSKNTLYLQMNSLRAEDTAVYYCARLMGYGHYYPFDYWGQGTLVTVSS
VL: DIELTQPPSVSVAPGQTARISCSGDKIGSKYVYWYQQKPGQAPVLVIYDSNRPSGIPERFSGSNSGNTATLTISGTQAEDEADYYCASYDSIYSYWVFGGGTKLTVLG
notes: as for B1
Consider B7, for which the binding result is “binds”.

B8: TP-3A4 (Fab, V domains shown)
VH: QVQLVESGGGLVQPGGSLRLSCAASGFTFSSYWMHWVRQAPGKGLEWVSSISYDSSNTYYADSVKGRFTISRDNSKNTLYLQMNSLRAEDTAVYYCARYGGMDYWGQGTLVTVSS
VL: DIELTQPPSVSVAPGQTARISCSGDNLRDKYASWYQQKPGQAPVLVIYSKSERPSGIPERFSGSNSGNTATLTISGTQAEDEADYYCSSYTLNPNLNYVFGGGTKLTVLG
notes: as for B1
With B8, the binding result is recorded as “binds”.

B9: TP-2D7 (Fab, V domains shown)
VH: QVQLQQSGPGLVKPSQTLSLTCAISGDSVSSNSAAWGWIRQSPGRGLEWLGLIYYRSKWYNDYAVSVKSRITINPDTSKNQFSLQLNSVTPEDTAVYYCARFGDTNRNGTDVWGQGTLVTVSS
VL: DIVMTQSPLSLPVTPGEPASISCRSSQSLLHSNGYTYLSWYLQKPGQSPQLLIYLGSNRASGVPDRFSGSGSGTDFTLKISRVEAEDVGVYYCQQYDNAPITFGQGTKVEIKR
notes: as for B1
For B9, the binding result was “binds”.

B10: TP-2B9 (Fab, V domains shown)
VH: QVQLQQSGPGLVKPSQTLSLTCAISGDSVSSNSAAWGWIRQSPGRGLEWLGMIYHRSKWYNDYAVSVKSRITINPDTSKNQFSLQLNSVTPEDTAVYYCARYSSIGHMDYWGQGTLVTVSS
VL: DIQMTQSPSSLSASVGDRVTITCRASQSIRSYLAWYQQKPGKAPKLLIYKASNLQSGVPSRFSGSGSGTDFTLTISSLQPEDFAVYYCHQYSDSPVTFGQGTKVEIKR
notes: as for B1
As to B10, the binding result is listed as “binds”.

B11: TP-3C2 (Fab, V domains shown)
VH: QVQLQQSGPGLVKPSQTLSLTCAISGDSVSSSSAAWSWIRQSPGRGLEWLGMIYYRSKWYNHYAVSVKSRITINPDTSKNQFSLQLNSVTPEDTAVYYCARGGSGVMDVWGQGTLVTVSS
VL: DIQMTQSPSSLSASVGDRVTITCRASQSITNYLNWYQQKPGKAPKLLIYDVSNLQSGVPSRFSGSGSGTDFTLTISSLQPEDFAVYYCQQYSGYPLTFGQGTKVEIKR
notes: as for B1
On to B11, for which the binding result was “binds”.

B12: TP-2G5 (Fab, V domains shown)
VH: QVQLQQSGPGLVKPSQTLSLTCAISGDSVSSNSAAWSWIRQSPGRGLEWLGFIYYRSKWYNDYAVSVKSRITINPDTSKNQFSLQLNSVTPEDTAVYYCARHNPDLGFDYWGQGTLVTVSS
VL: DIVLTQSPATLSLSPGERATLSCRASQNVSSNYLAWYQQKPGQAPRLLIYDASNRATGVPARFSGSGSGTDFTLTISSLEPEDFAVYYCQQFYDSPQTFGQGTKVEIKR
notes: as for B1
Take B12: the binding result is on record as “binds”.

B13: TP-2H10 (Fab, V domains shown)
VH: QVQLQQSGPGLVKPSQTLSLTCAISGDSVSSNGAAWGWIRQSPGRGLEWLGFIYRRSKWYNSYAVSVKSRITINPDTSKNQFSLQLNSVTPEDTAVYYCARQDGMGGMDSWGQGTLVTVSS
VL: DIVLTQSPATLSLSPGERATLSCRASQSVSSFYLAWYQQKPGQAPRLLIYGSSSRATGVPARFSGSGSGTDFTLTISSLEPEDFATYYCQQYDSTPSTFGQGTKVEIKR
notes: as for B1
In the case of B13, the binding result was “binds”.

B14: TP-2E3 (Fab, V domains shown)
VH: QVQLQQSGPGLVKPSQTLSLTCAISGDSVSSNSAAWGWIRQSPGRGLEWLGMIYYRSKWYNDYAVSVKSRITINPDTSKNQFSLQLNSVTPEDTAVYYCARVNQYTSSDYWGQGTLVTVSS
VL: DIALTQPASVSGSPGQSITISCTGTSSDIGGYNYVSWYQQHPGKAPKLMIYGVNYRPSGVSNRFSGSKSGNTASLTISGLQAEDEADYYCSSADKFTMSIVFGGGTKLTVLG
notes: as for B1
In the case of B14, the binding result is on record as “binds”.

B15: TP-2E5 (Fab, V domains shown)
VH: QVQLQQSGPGLVKPSQTLSLTCAISGDSVSSNSAAWSWIRQSPGRGLEWLGMIFYRSKWNNDYAVSVKSRITINPDTSKNQFSLQLNSVTPEDTAVYYCARVNANGYYAYVDLWGQGTLVTVSS
VL: DIQMTQSPSSLSASVGDRVTITCRASQPIYNSLSWYQQKPGKAPKLLIYGVSNLQSGVPSRFSGSGSGTDFTLTISSLQPEDFAVYYCLQVDNLPITFGQGTKVEIKR
notes: as for B1
Take B15: the binding result is listed as “binds”.

B16: TP-3A3 (Fab, V domains shown)
VH: QVQLVESGGGLVQPGGSLRLSCAASGFTFNNNAISWVRQAPGKGLEWVSAINSSSSSTSYADSVKGRFTISRDNSKNTLYLQMNSLRAEDTAVYYCARGHHRGHSWASFIDYWGQGTLVTVSS
VL: DIELTQPPSVSVAPGQTARISCSGDNIGSKYVHWYQQKPGQAPVVVIYEDSDRPSGIPERFSGSNSGNTATLTISGTQAEDEADYYCQSWDKSEGYVFGGGTKLTVLG
notes: as for B1
Regarding B16, the binding result is on record as “binds”.

B17: TP-2F9 (Fab, V domains shown)
VH: QVQLVESGGGLVQPGGSLRLSCAASGFTFYKYAMHWVRQAPGKGLEWVSGIQYDGSYTYYADSVKGRFTISRDNSKNTLYLQMNSLRAEDTAVYYCARYYCKCVDLWGQGTLVTVSS
VL: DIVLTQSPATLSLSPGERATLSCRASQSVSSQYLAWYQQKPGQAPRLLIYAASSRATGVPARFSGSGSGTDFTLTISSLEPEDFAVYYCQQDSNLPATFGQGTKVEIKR
notes: as for B1
As for B17, the binding result was “binds”.

B18: TP-2G9 (Fab, V domains shown)
VH: QVQLVESGGGLVQPGGSLRLSCAASGFTFNSYAMTWVRQAPGKGLEWVSAIKSDGSNTYYADSVKGRFTISRDNSKNTLYLQMNSLRAEDTAVYYCARNDSGWFDVWGQGTLVTVSS
VL: DIALTQPASVSGSPGQSITISCTGTSSDLGGFNTVSWYQQHPGKAPKLMIYSVSSRPSGVSNRFSGSKSGNTASLTISGLQAEDEADYYCQSYDLNNLVFGGGTKLTVLG
notes: as for B1
Turning to B18, the binding result was “binds”.

B19: TP-3C1 (Fab, V domains shown)
VH: QVQLVESGGGLVQPGGSLRLSCAASGFTFSSYSMHWVRQAPGKGLEWVSGISYSSSFTYYADSVKGRFTISRDNSKNTLYLQMNSLRAEDTAVYYCARALGGGVDYWGQGTLVTVSS
VL: DIALTQPASVSGSPGQSITISCTGTSSDLGGFNTVSWYQQHPGKAPKLMIYSVSSRPSGVSNRFSGSKSGNTASLTISGLQAEDEADYYCQSYDLNNLVFGGGTKLTVLG
notes: Human Fab (HuCal Gold), made in E. coli TG1; VL is the same entry as TP-2G9, VH the same entry as TP-3F2 (so in the source)
B19: the binding result was “binds”.

B20: TP-2G4 (Fab, V domains shown)
VH: QVQLVESGGGLVQPGGSLRLSCAASGFTFSSYAMTWVRQAPGKGLEWVSNISYSGSNTYYADSVKGRFTISRDNSKNTLYLQMNSLRAEDTAVYYCARVGYYYGFDYWGQGTLVTVSS
VL: DIELTQPPSVSVAPGQTARISCSGDALRKHYVYWYQQKPGQAPVLVIYGDNNRPSGIPERFSGSNSGNTATLTISGTQAEDEADYYCQSYDKPYPILVFGGGTKLTVLG
notes: as for B1
Turning to B20, the binding result is “binds”.

B21: TP-3B3 (Fab, V domains shown)
VH: QVQLVESGGGLVQPGGSLRLSCAASGFTFSSYGMHWVRQAPGKGLEWVSNISYMGSNTNYADSVKGRFTISRDNSKNTLYLQMNSLRAEDTAVYYCARGLFPGYFDYWGQGTLVTVSS
VL: DIELTQPASVSVAPGQTARISCSGDNLRSKYAHWYQQKPGQAPVLVIYGDNNRPSGIPERFSGSNSGNTATLTISGTQAEDEADYYCSAYAMGSSPVFGGGTKLTVLG
notes: as for B1
On to B21, for which the binding result is given as “binds”.

(Values after patent JP2016028048A (dated 2016).)
